Consider 1 variant from IntAct's records for PubMed 17853893.

B1: Programmed cell death 6-interacting protein (Homo sapiens), Q8WUM4 (parent)
chain: MATFISVQLKKTSEVDLAKPLVKFIQQTYPSGGEEQAQYCRAAEELSKLRRAAVGRPLDKHEGALETLLRYYDQICSIEPKFPFSENQICLTFTWKDAFDKGSLFGGSVKLALASLGYEKSCVLFNCAALASQIAAEQNLDNDEGLKIAAKHYQFASGAFLHIKETVLSALSREPTVDISPDTVGTLSLIMLAQAQEVFFLKATRDKMKDAIIAKLANQAADYFGDAFKQCQYKDTLPKEVFPVLAAKHCIMQANAEYHQSILAKQQKKFGEEIARLQHAAELIKTVASRYDEYVNVKDFSDKINRALAAAKKDNDFIYHDRVPDLKDLDPIGKATLVKSTPVNVPISQKFTDLFEKMVPVSVQQSLAAYNQRKADLVNRSIAQMREATTLANGVLASLNLPAAIEDVSGDTVPQSILTKSRSVIEQGGIQTVDQLIKELPELLQRNREILDESLRLLDEEEATDNDLRAKFKERWQRTPSNELYKPLRAEGTNFRTVLDKAVQADGQVKECYQSHRDTIVLLCKPEPELNAAIPSANPAKTMQGSEVVNVLKSLLSNLDEVKKEREGLENDLKSVNFDMTSKFLTALAQDGVINEEALSVTELDRVYGGLTTKVQESLKKQEGLLKNIQVSHQEFSKMKQSNNEANLREEVLKNLATAYDNFVELVANLKEGTKFYNELTEILVRFQNKCSDIVFARKTERDELLKDLQQSIAREPSAPSIPTPAYQSSPAGGHAPTPPTPAPRTMPPTKPQPPARPPPPVLPANRAPSATAPSPVGAGTAAPAPSQTPGSAPPPQAQGPPYPTYPGYPGYCQMPMPMGYNPYAYGQYNMPYPPVYHQSPGQAPYPGPQQPSYPFPQPPQQSYYPQQ
partner: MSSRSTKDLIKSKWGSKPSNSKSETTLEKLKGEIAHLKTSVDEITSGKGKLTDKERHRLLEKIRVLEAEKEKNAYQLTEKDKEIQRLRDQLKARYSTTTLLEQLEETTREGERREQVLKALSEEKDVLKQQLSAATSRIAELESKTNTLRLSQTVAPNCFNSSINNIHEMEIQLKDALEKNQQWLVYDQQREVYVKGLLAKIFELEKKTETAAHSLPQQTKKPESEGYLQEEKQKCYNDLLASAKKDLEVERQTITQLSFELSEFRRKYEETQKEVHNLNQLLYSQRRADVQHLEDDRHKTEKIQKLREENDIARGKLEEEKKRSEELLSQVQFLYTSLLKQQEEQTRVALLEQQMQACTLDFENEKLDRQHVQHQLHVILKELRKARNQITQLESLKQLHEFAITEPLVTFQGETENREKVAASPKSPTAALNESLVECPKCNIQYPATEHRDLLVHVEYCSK

Variants of B1 are the subject of this test. The settings on record: with cep55_human CEP55, Q53EZ4.
In the case of G800A;P801A;P802A, the “effect of a mutation on the interaction” value is “disrupting interaction strength”.
